In general, Kd refers to the equilibrium constant for the complex coming apart. A higher Kd goes with weaker binding.

These results are taken from paper PMC3286832 (2011).

The assay deals with T1, Dnmt3a K44me0 peptide 39-50 (Mus musculus, UniProt O88508).
T1 chain: SATARKVGRPGR

B1: GLP SET (protein)
chain: not shown
Molecule B1 yielded a Kd of around 5 µM.

B2: G9a SET (protein)
chain: not shown
As for B2, the Kd is around 5 µM.
